The text below walks through data of US20260201008A1, “SECRETIN-DERIVED GLP1R SELECTIVE AGONISTS” (GUBRA A/S, priority 2023, published 2026).

Numbered stars: 1 amine (or outer) side, 2 acyl side, 3 side chain; on linkers, the order of the positions; unused ones are H or OH. Square brackets hold non-standard residues; d marks the D form. Side chains are listed from the residue outwards. Ends that are not written are not given here. * marks the point of attachment. C20 diacid = O=C(O)CCCCCCCCCCCCCCCCCCC(=O)*; γGlu = O=C(O)[C@H](CCC(=O)[*:2])N[*:1]; AEEA = NCCOCCOCC(=O)O; Aib = CC(C)(N)C(=O)O

First the molecules themselves.
B1: SEQ ID NO: 182 (peptide)
peptide: H[Aib]EGTFTSDVSGLLEGAALQRFIQWLV-NH2
modifications: N-terminus assumed
SMILES: CC[C@H](C)[C@H](NC(=O)[C@H](Cc1ccccc1)NC(=O)[C@H](CCCNC(=N)N)NC(=O)[C@H](CCC(N)=O)NC(=O)[C@H](CC(C)C)NC(=O)[C@H](C)NC(=O)[C@H](C)NC(=O)CNC(=O)[C@H](CCC(=O)O)NC(=O)[C@H](CC(C)C)NC(=O)[C@H](CC(C)C)NC(=O)CNC(=O)[C@H](CO)NC(=O)[C@@H](NC(=O)[C@H](CC(=O)O)NC(=O)[C@H](CO)NC(=O)[C@@H](NC(=O)[C@H](Cc1ccccc1)NC(=O)[C@@H](NC(=O)CNC(=O)[C@H](CCC(=O)O)NC(=O)C(C)(C)NC(=O)[C@@H](N)Cc1c[nH]cn1)[C@@H](C)O)[C@@H](C)O)C(C)C)C(=O)N[C@@H](CCC(N)=O)C(=O)N[C@@H](Cc1c[nH]c2ccccc12)C(=O)N[C@@H](CC(C)C)C(=O)N[C@H](C(N)=O)C(C)C
B2: SEQ ID NO: 173 (peptide)
peptide: H[Aib]EGTFTSDVSFLK([AEEA-AEEA-γGlu-C20 diacid])EEA[Aib]LQRFLEHLV-NH2
B3: SEQ ID NO: 178 (peptide)
peptide: H[Aib]EGTFTSDVSRLLEGAALQRFIQWLV-NH2
modifications: N-terminus assumed
SMILES: CC[C@H](C)[C@H](NC(=O)[C@H](Cc1ccccc1)NC(=O)[C@H](CCCNC(=N)N)NC(=O)[C@H](CCC(N)=O)NC(=O)[C@H](CC(C)C)NC(=O)[C@H](C)NC(=O)[C@H](C)NC(=O)CNC(=O)[C@H](CCC(=O)O)NC(=O)[C@H](CC(C)C)NC(=O)[C@H](CC(C)C)NC(=O)[C@H](CCCNC(=N)N)NC(=O)[C@H](CO)NC(=O)[C@@H](NC(=O)[C@H](CC(=O)O)NC(=O)[C@H](CO)NC(=O)[C@@H](NC(=O)[C@H](Cc1ccccc1)NC(=O)[C@@H](NC(=O)CNC(=O)[C@H](CCC(=O)O)NC(=O)C(C)(C)NC(=O)[C@@H](N)Cc1c[nH]cn1)[C@@H](C)O)[C@@H](C)O)C(C)C)C(=O)N[C@@H](CCC(N)=O)C(=O)N[C@@H](Cc1c[nH]c2ccccc12)C(=O)N[C@@H](CC(C)C)C(=O)N[C@H](C(N)=O)C(C)C
B4: SEQ ID NO: 18 (peptide)
peptide: H[Aib]EGTFTSDVSELK([AEEA-AEEA-γGlu-C20 diacid])E[Aib]AAEQRFLEHLV-NH2
B5: SEQ ID NO: 174 (peptide)
peptide: H[Aib]EGTFTSDVSWLK([AEEA-AEEA-γGlu-C20 diacid])EEA[Aib]LQRFLEHLV-NH2
B6: SEQ ID NO: 171 (peptide)
peptide: H[Aib]HGTFTSDVSYLK([AEEA-AEEA-γGlu-C20 diacid])EEA[Aib]LQRFLEHLV-NH2
B7: SEQ ID NO: 180 (peptide)
peptide: H[Aib]EGTFTSDVSELLEGAALQRFIQWLV-NH2
modifications: N-terminus assumed
SMILES: CC[C@H](C)[C@H](NC(=O)[C@H](Cc1ccccc1)NC(=O)[C@H](CCCNC(=N)N)NC(=O)[C@H](CCC(N)=O)NC(=O)[C@H](CC(C)C)NC(=O)[C@H](C)NC(=O)[C@H](C)NC(=O)CNC(=O)[C@H](CCC(=O)O)NC(=O)[C@H](CC(C)C)NC(=O)[C@H](CC(C)C)NC(=O)[C@H](CCC(=O)O)NC(=O)[C@H](CO)NC(=O)[C@@H](NC(=O)[C@H](CC(=O)O)NC(=O)[C@H](CO)NC(=O)[C@@H](NC(=O)[C@H](Cc1ccccc1)NC(=O)[C@@H](NC(=O)CNC(=O)[C@H](CCC(=O)O)NC(=O)C(C)(C)NC(=O)[C@@H](N)Cc1c[nH]cn1)[C@@H](C)O)[C@@H](C)O)C(C)C)C(=O)N[C@@H](CCC(N)=O)C(=O)N[C@@H](Cc1c[nH]c2ccccc12)C(=O)N[C@@H](CC(C)C)C(=O)N[C@H](C(N)=O)C(C)C
B8: SEQ ID NO: 170 (peptide)
peptide: H[Aib]LGTFTSDVSYLK([AEEA-AEEA-γGlu-C20 diacid])EEA[Aib]LQRFLEHLV-NH2
B9: SEQ ID NO: 177 (peptide)
peptide: H[Aib]EGTFTSDVSFLLEGAALQRFIQWLV-NH2
modifications: N-terminus assumed
SMILES: CC[C@H](C)[C@H](NC(=O)[C@H](Cc1ccccc1)NC(=O)[C@H](CCCNC(=N)N)NC(=O)[C@H](CCC(N)=O)NC(=O)[C@H](CC(C)C)NC(=O)[C@H](C)NC(=O)[C@H](C)NC(=O)CNC(=O)[C@H](CCC(=O)O)NC(=O)[C@H](CC(C)C)NC(=O)[C@H](CC(C)C)NC(=O)[C@H](Cc1ccccc1)NC(=O)[C@H](CO)NC(=O)[C@@H](NC(=O)[C@H](CC(=O)O)NC(=O)[C@H](CO)NC(=O)[C@@H](NC(=O)[C@H](Cc1ccccc1)NC(=O)[C@@H](NC(=O)CNC(=O)[C@H](CCC(=O)O)NC(=O)C(C)(C)NC(=O)[C@@H](N)Cc1c[nH]cn1)[C@@H](C)O)[C@@H](C)O)C(C)C)C(=O)N[C@@H](CCC(N)=O)C(=O)N[C@@H](Cc1c[nH]c2ccccc12)C(=O)N[C@@H](CC(C)C)C(=O)N[C@H](C(N)=O)C(C)C
B10: SEQ ID NO: 172 (peptide)
peptide: H[Aib]EGTFTSDVSILK([AEEA-AEEA-γGlu-C20 diacid])EEA[Aib]LQRFLEHLV-NH2
B11: SEQ ID NO: 176 (peptide)
peptide: H[Aib]EGTFTSDVSYLFEEA[Aib]LQRFLEK([AEEA-AEEA-γGlu-C20 diacid])LV-NH2
B12: SEQ ID NO: 181 (peptide)
peptide: H[Aib]EGTFTSDVSYLLEGAALQRFIQWLV-NH2
modifications: N-terminus assumed
SMILES: CC[C@H](C)[C@H](NC(=O)[C@H](Cc1ccccc1)NC(=O)[C@H](CCCNC(=N)N)NC(=O)[C@H](CCC(N)=O)NC(=O)[C@H](CC(C)C)NC(=O)[C@H](C)NC(=O)[C@H](C)NC(=O)CNC(=O)[C@H](CCC(=O)O)NC(=O)[C@H](CC(C)C)NC(=O)[C@H](CC(C)C)NC(=O)[C@H](Cc1ccc(O)cc1)NC(=O)[C@H](CO)NC(=O)[C@@H](NC(=O)[C@H](CC(=O)O)NC(=O)[C@H](CO)NC(=O)[C@@H](NC(=O)[C@H](Cc1ccccc1)NC(=O)[C@@H](NC(=O)CNC(=O)[C@H](CCC(=O)O)NC(=O)C(C)(C)NC(=O)[C@@H](N)Cc1c[nH]cn1)[C@@H](C)O)[C@@H](C)O)C(C)C)C(=O)N[C@@H](CCC(N)=O)C(=O)N[C@@H](Cc1c[nH]c2ccccc12)C(=O)N[C@@H](CC(C)C)C(=O)N[C@H](C(N)=O)C(C)C
B13: SEQ ID NO: 175 (peptide)
peptide: H[Aib]IGTFTSDVSYLK([AEEA-AEEA-γGlu-C20 diacid])EEA[Aib]LQRFLEHLV-NH2
B14: SEQ ID NO: 183 (peptide)
peptide: H[Aib]EGTFTSDVSWLLEGAALQRFIQWLV-NH2
modifications: N-terminus assumed
SMILES: CC[C@H](C)[C@H](NC(=O)[C@H](Cc1ccccc1)NC(=O)[C@H](CCCNC(=N)N)NC(=O)[C@H](CCC(N)=O)NC(=O)[C@H](CC(C)C)NC(=O)[C@H](C)NC(=O)[C@H](C)NC(=O)CNC(=O)[C@H](CCC(=O)O)NC(=O)[C@H](CC(C)C)NC(=O)[C@H](CC(C)C)NC(=O)[C@H](Cc1c[nH]c2ccccc12)NC(=O)[C@H](CO)NC(=O)[C@@H](NC(=O)[C@H](CC(=O)O)NC(=O)[C@H](CO)NC(=O)[C@@H](NC(=O)[C@H](Cc1ccccc1)NC(=O)[C@@H](NC(=O)CNC(=O)[C@H](CCC(=O)O)NC(=O)C(C)(C)NC(=O)[C@@H](N)Cc1c[nH]cn1)[C@@H](C)O)[C@@H](C)O)C(C)C)C(=O)N[C@@H](CCC(N)=O)C(=O)N[C@@H](Cc1c[nH]c2ccccc12)C(=O)N[C@@H](CC(C)C)C(=O)N[C@H](C(N)=O)C(C)C
B15: SEQ ID NO: 169 (peptide)
peptide: H[Aib]EGTFTSDVSYLK([AEEA-AEEA-γGlu-C20 diacid])EEA[Aib]LQRFLEWLV-NH2
B16: SEQ ID NO: 179 (peptide)
peptide: H[Aib]EGTFTSDVS[Aib]LLEGAALQRFIQWLV-NH2
modifications: N-terminus assumed
SMILES: CC[C@H](C)[C@H](NC(=O)[C@H](Cc1ccccc1)NC(=O)[C@H](CCCNC(=N)N)NC(=O)[C@H](CCC(N)=O)NC(=O)[C@H](CC(C)C)NC(=O)[C@H](C)NC(=O)[C@H](C)NC(=O)CNC(=O)[C@H](CCC(=O)O)NC(=O)[C@H](CC(C)C)NC(=O)[C@H](CC(C)C)NC(=O)C(C)(C)NC(=O)[C@H](CO)NC(=O)[C@@H](NC(=O)[C@H](CC(=O)O)NC(=O)[C@H](CO)NC(=O)[C@@H](NC(=O)[C@H](Cc1ccccc1)NC(=O)[C@@H](NC(=O)CNC(=O)[C@H](CCC(=O)O)NC(=O)C(C)(C)NC(=O)[C@@H](N)Cc1c[nH]cn1)[C@@H](C)O)[C@@H](C)O)C(C)C)C(=O)N[C@@H](CCC(N)=O)C(=O)N[C@@H](Cc1c[nH]c2ccccc12)C(=O)N[C@@H](CC(C)C)C(=O)N[C@H](C(N)=O)C(C)C

The target of one experiment is human GLP-1 receptor (hGLP1R) (human, UniProt P43220 24-463). The experiment can be described thus: cell-based or functional assay.
Regarding B1, the “pEC50 hGLPR1” value is 10.3 -log M.
The same measure, in the same setting: next, B2: 10.9 -log M; B3: 10.2 -log M.
The same measure, in the same setting: next, B4: 10.5 -log M.
For B5, the “pEC50 hGLPR1” value is 10.9 -log M.
On to B6, for which the “pEC50 hGLPR1” value was 9.8 -log M.
The same measure, in the same setting: next, B7: 10.8 -log M.
B8: the “pEC50 hGLPR1” value is 10.6 -log M.
Still for that read-out and setting: next, B9: 10.8 -log M.
The same measure, in the same setting: next, B10: 10.8 -log M; B11: 10.5 -log M.
On the same count and under the same terms, next, B12: 10.3 -log M; B13: 10.5 -log M; B14: 10.3 -log M.
Regarding B15, the “pEC50 hGLPR1” value was 10.4 -log M.
With B16, the “pEC50 hGLPR1” value was 10.1 -log M.

The target of a further experiment is human secretin receptor (hSCTR) (human, UniProt P47872 23-440). Kind of experiment: cell-based or functional assay.
human secretin receptor (hSCTR), sequence (P47872 23-440): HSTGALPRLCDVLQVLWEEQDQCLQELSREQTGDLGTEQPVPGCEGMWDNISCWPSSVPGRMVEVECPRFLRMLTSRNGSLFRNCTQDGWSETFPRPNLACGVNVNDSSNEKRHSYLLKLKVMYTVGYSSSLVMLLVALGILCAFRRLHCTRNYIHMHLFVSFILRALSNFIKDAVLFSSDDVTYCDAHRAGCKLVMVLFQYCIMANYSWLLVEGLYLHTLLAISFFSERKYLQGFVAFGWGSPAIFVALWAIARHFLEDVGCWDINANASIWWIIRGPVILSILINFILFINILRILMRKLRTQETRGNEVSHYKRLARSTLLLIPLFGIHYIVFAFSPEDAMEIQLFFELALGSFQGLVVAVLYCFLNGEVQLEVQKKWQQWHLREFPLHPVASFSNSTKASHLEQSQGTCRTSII
As for B1, the “pEC50 hSCTR” value was 6.8 -log M.
The same measure, in the same setting: next, B2: 6.8 -log M; B3: 7.2 -log M; B4: 6.3 -log M.
For the molecule B5, the “pEC50 hSCTR” value is 7 -log M.
Still for that read-out and setting: next, B6: 4.5 -log M; B7: 6.7 -log M.
Still for that read-out and setting: next, B8: 4.6 -log M.
Same read-out and setting: next, B9: 6.3 -log M; B10: 7.7 -log M.
As to B11, the “pEC50 hSCTR” value was 5.5 -log M.
B12: the “pEC50 hSCTR” value is 6.7 -log M.
Same read-out and setting: next, B13: 5.1 -log M; B14: 6.8 -log M.
With B15, the “pEC50 hSCTR” value was 6.3 -log M.
On the same count and under the same terms, next, B16: 6.3 -log M.
